Source: patent publication US20250043019A1 (Janssen / Centocor, published 2025)

Experiments:
[1] = target: T1, human CD20 on the cell surface (human, UniProt P11836 1-297); test: cell-based binding on CARNAVAL cells
T1 construct: whole, on cells; On B-lymphoma lines, primary B cells, K562 CD20 or HEK293 transfectants; also called MS4A1; B-lymphocyte antigen CD20
T1 sequence (looked up): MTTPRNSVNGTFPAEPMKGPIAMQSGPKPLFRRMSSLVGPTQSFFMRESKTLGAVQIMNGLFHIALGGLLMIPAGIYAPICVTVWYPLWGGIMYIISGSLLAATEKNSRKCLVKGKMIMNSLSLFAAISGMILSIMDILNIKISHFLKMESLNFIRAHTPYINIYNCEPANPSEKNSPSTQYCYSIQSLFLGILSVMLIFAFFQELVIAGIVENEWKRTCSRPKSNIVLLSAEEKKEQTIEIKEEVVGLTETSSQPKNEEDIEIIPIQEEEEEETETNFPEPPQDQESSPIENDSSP

[2] = target: T2, cynomolgus monkey CD79b antigen (cynomolgus monkey); test: SPR
T2 construct: also called cyno CD79b; CD9W1.001

B1: CD20 binding arm of C923B169 tested as scFv (scFv)
chain: EIVLTQSPATLSLSPGERATLSCRASLSVSSMHWYQQKPGQAPRLLIYATSNLASGIPARFSGSGSGTDFTLTISSLEPEDFAVYYCQQWIFNPPTFGGGTKVEIKGGSEGKSSGSGSESKSTGGSQVQLVQSGAEVKKPGSSVKVSCKASGYTFSSYNMHWVRQAPGQGLEWMGAIYPGAGDTSYAQKFQGRVTITADESTSTAYMELSSLRSEDTAVYYCARSNYYGSSGWYFDVWGKGTTVTVSS
EC50 [1]: 16 nM

B2: C923B38 CD79bxCD20xCD3 trispecific antibody (other)
heavy: QVQLQESGPGLVKPSETLSLTCSVSGASISSFYWSWIRQPADEGLEWIGRISPSGKTNYIPSLKSRIIMSLDASKNQFSLRLNSVTAADTAMYYCARGEYSGTYSYSFDVWGQGTMVTVSSASTKGPSVFPLAPSSKSTSGGTAALGCLVKDYFPEPVTVSWNSGALTSGVHTFPAVLQSSGLYSLSSVVTVPSSSLGTQTYICNVNHKPSNTKVDKKVEPKSCDKTHTCPPCPAPEAAGGPSVFLFPPKPKDTLMISRTPEVTCVVVSVSHEDPEVKFNWYVDGVEVHNAKTKPREEQYNSTYRVVSVLTVLHQDWLNGKEYKCKVSNKALPAPIEKTISKAKGQPREPQVYTLPPSREEMTKNQVSLSCAVKGFYPSDIAVEWESNGQPENNYKTTPPVLDSDGSFFLVSKLTVDKSRWQQGNVFSCSVMHEALHNRFTQKSLSLSPGK
light: DIVMTQSPLSLSVTPGEPASISCRSSESLLDSEDGNTYLDWFLQKPGQSPQLLIYTLSYRASGVPDRFSGSGSDTDFTLHISSLEAEDVGLYYCMQRMEFPLTFGQGTKVEIKRTVAAPSVFIFPPSDEQLKSGTASVVCLLNNFYPREAKVQWKVDNALQSGNSQESVTEQDSKDSTYSLSSTLTLSKADYEKHKVYACEVTHQGLSSPVTKSFNRGEC
chain: EIVLTQSPATLSASPGERVTLSCSASSSVSYMNWYQQKPGQAPRRWIYDSSKLASGVPARFSGSGSGRDYTLTISSLEPEDFAVYYCQQWSRNPPTFGGGTKVEIKGGSEGKSSGSGSESKSTGGSQVQLVQSGAEVKKPGSSVKVSCKASGYTFTRSTMHWVKQAPGQGLEWIGYINPSSAYTNYNQKFQGRVTLTADKSTSTAYMELSSLRSEDTAVYYCASPQVHYDYAGFPYWGQGTLVTVSSEPKSSDKTHTCPPCPAPEAAGGPSVFLFPPKPKDTLMISRTPEVTCVVVSVSHEDPEVKFNWYVDGVEVHNAKTKPREEQYNSTYRVVSVLTVLHQDWLNGKEYKCKVSNKALPAPIEKTISKAKGQPREPQVYTLPPSREEMTKNQVSLWCLVKGFYPSDIAVEWESNGQPENNYKTTPPVLDSDGSFFLYSKLTVDKSRWQQGNVFSCSVMHEALHNHYTQKSLSLSPGKGGSEGKSSGSGSESKSTGGSAIQLTQSPSSLSASVGDRVTITCRASSSVSYIHWFQQKPGKAPKPLIYATSNLASGVPSRFSGSGSGTDFTLTISSLQPEDFATYYCQQWTSNPPTFGQGTKLEIKGGSEGKSSGSGSESKSTGGSQVQLVQSGAEVKKPGSSVKVSCKASGYTFTSYNMHWVRQAPGQGLEWMGAIYPGNGDTSYAQKFQGRVTITADKSTSTAYMELSSLRSEDTAVYYCARSTYYGGDWYFNVWGQGTLVTVSS
notes: Trispecific IgG1: CD79b Fab arm (HC1/LC) plus one chain CD3 scFv-Fc-CD20 scFv; also called CD9B374 / CD3B2030-N106A-scFv-LH-C20B22
Kd [2]: > 3000 nM
